Reference: US20230220589A1

B1: engineered M44-L binder (SEQ ID NO: 31) (designed binder, not shown: small tags and cut ends; large carriers)
chain: QDSTQNLIPAPPLISVPLQPGFWTERFQGRWFLVGFAGNAVQKERQSRLTMQSLILELQEDNSYNITAINVRGQGCRYIISTLVPSSRPGQFTLGNIHSYPQIQSLDVQVADTDYDQFAMVFLQGTSENKQYFEVALAGRTKGLSDELKERFVSFAKSLGLKDNNIVFSVPTDQCIDN
B2: engineered M44-A binder (SEQ ID NO: 42) (designed binder, not shown: small tags and cut ends; large carriers)
chain: QVSVQPNFQQDKFLGRWFVAGLASNSSWDREKVAALSGAKMVVAPATDGGLNVTRTMLRKNQCETYTGLLQPAGSLGSYSWRSPHPGSTGSESVVETDYDQYALVYGQGSKGPGEDLRAAALWSRTQTPRAELKEKFTAFSKAQGFTEDTIVFLPQTDKCMTEQ
B3: engineered M44-L binder (SEQ ID NO: 21) (designed binder, not shown: small tags and cut ends; large carriers)
chain: QVSVQPNFQQDKFLGRWFYAGHASNSSWYREKVAALSMAKLVVAPATDGGLNATETFLRKNQCETITSLLQPAGSLGSYSSRSPHGGSTWSTSVVETDYDQYALLYLQGSKGPGEDFRGAILASRTQTPRAELKEKFTAFSKAQGFTEDTIVFLPQTDKCMTEQ

biological target: M44-modified A NTAA target peptides (M44-A-P2-peptide); assay: encoding assay; P2 F

encoding yield	Binder
0.05	B1
0.31	B2
0.01	B3

biological target: M44-modified D NTAA target peptides; assay: encoding assay; P2 F;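 note: fraction of recording tags encoded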

encoding yield	Binder
0.03	B1
0.03	B2
0.01	B3

biological target: M44-modified E NTAA target peptides; assay: encoding assay; P2 F;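 note: fraction of recording tags encoded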

encoding yield	Binder
0.03	B1
0.04	B2
0.01	B3

biological target: M44-modified F NTAA target peptides (M44-F-P2-peptide); assay: encoding assay; P2 F;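 note: fraction of recording tags encoded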

encoding yield	Binder
0.09	B1
0.03	B2
0.01	B3

biological target: M44-modified G NTAA target peptides (M44-G-P2-peptide); assay: encoding assay; P2 F;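 note: fraction of recording tags encoded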

encoding yield	Binder
0.04	B1
0.1	B2
0.02	B3

biological target: M44-modified H NTAA target peptides; assay: encoding assay; P2 F

encoding yield	Binder
0.04	B1
0.04	B2
0.02	B3

biological target: M44-modified I NTAA target peptides (M44-I-P2-peptide); assay: encoding assay; P2 F

encoding yield	Binder
0.08	B1
0.07	B2
0.07	B3

biological target: M44-modified L NTAA target peptides (M44-L-P2-peptide); assay: encoding assay; P2 F;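 note: fraction of recording tags encoded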

encoding yield	Binder
0.13	B1
0.05	B2
0.06	B3

biological target: M44-modified M NTAA target peptides; assay: encoding assay; P2 F

encoding yield	Binder
0.1	B1
0.09	B2
0.05	B3

biological target: M44-modified N NTAA target peptides; assay: encoding assay; P2 F

encoding yield	Binder
0.05	B1
0.03	B2
0.01	B3

biological target: M44-modified P NTAA target peptides; assay: encoding assay; P2 F;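 note: fraction of recording tags encoded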

encoding yield	Binder
0.02	B1
0.02	B2
0.01	B3

biological target: M44-modified Q NTAA target peptides; assay: encoding assay; P2 F

encoding yield	Binder
0.02	B1
0.03	B2
0.01	B3

biological target: M44-modified S NTAA target peptides; assay: encoding assay; P2 F

encoding yield	Binder
0.04	B1
0.18	B2
0.01	B3

biological target: M44-modified T NTAA target peptides; assay: encoding assay; P2 F

encoding yield	Binder
0.04	B1
0.25	B2
0.02	B3

biological target: M44-modified V NTAA target peptides; assay: encoding assay; P2 F;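 note: fraction of recording tags encoded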

encoding yield	Binder
0.03	B1
0.13	B2
0.01	B3

biological target: M44-modified W NTAA target peptides; assay: encoding assay; P2 F;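 note: fraction of recording tags encoded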

encoding yield	Binder
0.09	B1
0.03	B2
0.02	B3

biological target: M44-modified Y NTAA target peptides (M44-Y-P2-peptide); assay: encoding assay; P2 F;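 note: fraction of recording tags encoded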

encoding yield	Binder
0.12	B1
0.05	B2
0.02	B3

biological target: M44-modified A NTAA target peptides (M44-A-P2-peptide); assay: encoding assay; P2 I

encoding yield	Binder
0.03	B1
0.2	B2
0.01	B3

biological target: M44-modified D NTAA target peptides; assay: encoding assay; P2 I;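 note: fraction of recording tags encoded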

encoding yield	Binder
0.03	B1
0.03	B2
0.01	B3

biological target: M44-modified E NTAA target peptides; assay: encoding assay; P2 I;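 note: fraction of recording tags encoded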

encoding yield	Binder
0.03	B1
0.03	B2
0.01	B3

biological target: M44-modified F NTAA target peptides (M44-F-P2-peptide); assay: encoding assay; P2 I;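 note: fraction of recording tags encoded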

encoding yield	Binder
0.05	B1
0.02	B2
0.01	B3

biological target: M44-modified G NTAA target peptides (M44-G-P2-peptide); assay: encoding assay; P2 I;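 note: fraction of recording tags encoded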

encoding yield	Binder
0.02	B1
0.1	B2
0.02	B3

biological target: M44-modified H NTAA target peptides; assay: encoding assay; P2 I

encoding yield	Binder
0.03	B1
0.04	B2
0.01	B3

biological target: M44-modified I NTAA target peptides (M44-I-P2-peptide); assay: encoding assay; P2 I

encoding yield	Binder
0.14	B1
0.08	B2
0.13	B3

biological target: M44-modified L NTAA target peptides (M44-L-P2-peptide); assay: encoding assay; P2 I;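 note: fraction of recording tags encoded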

encoding yield	Binder
0.15	B1
0.03	B2
0.06	B3

biological target: M44-modified M NTAA target peptides; assay: encoding assay; P2 I

encoding yield	Binder
0.03	B1
0.01	B2
0.03	B3

biological target: M44-modified N NTAA target peptides; assay: encoding assay; P2 I

encoding yield	Binder
0.05	B1
0.03	B2
0.01	B3

biological target: M44-modified Q NTAA target peptides; assay: encoding assay; P2 I

encoding yield	Binder
0.01	B1
0.03	B2
0.01	B3

biological target: M44-modified S NTAA target peptides; assay: encoding assay; P2 I

encoding yield	Binder
0.03	B1
0.1	B2
0.02	B3

biological target: M44-modified T NTAA target peptides; assay: encoding assay; P2 I

encoding yield	Binder
0.04	B1
0.12	B2
0.01	B3

biological target: M44-modified V NTAA target peptides; assay: encoding assay; P2 I;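 note: fraction of recording tags encoded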

encoding yield	Binder
0.06	B1
0.11	B2
0.03	B3

biological target: M44-modified W NTAA target peptides; assay: encoding assay; P2 I;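 note: fraction of recording tags encoded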

encoding yield	Binder
0.05	B1
0.02	B2
0.02	B3

biological target: M44-modified Y NTAA target peptides (M44-Y-P2-peptide); assay: encoding assay; P2 I;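 note: fraction of recording tags encoded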

encoding yield	Binder
0.07	B1
0.1	B2
0.03	B3

biological target: M44-modified A NTAA target peptides (M44-A-P2-peptide); assay: encoding assay; P2 Q

encoding yield	Binder
0.04	B1
0.22	B2
0.02	B3

biological target: M44-modified D NTAA target peptides; assay: encoding assay; P2 Q;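 note: fraction of recording tags encoded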

encoding yield	Binder
0.01	B1
0.03	B2
0.01	B3

biological target: M44-modified E NTAA target peptides; assay: encoding assay; P2 Q;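 note: fraction of recording tags encoded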

encoding yield	Binder
0.02	B1
0.04	B2
0.01	B3

biological target: M44-modified F NTAA target peptides (M44-F-P2-peptide); assay: encoding assay; P2 Q;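 note: fraction of recording tags encoded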

encoding yield	Binder
0.04	B1
0.03	B2
0.01	B3

biological target: M44-modified H NTAA target peptides; assay: encoding assay; P2 Q

encoding yield	Binder
0.04	B1
0.04	B2
0.01	B3

biological target: M44-modified I NTAA target peptides (M44-I-P2-peptide); assay: encoding assay; P2 Q

encoding yield	Binder
0.03	B1
0.02	B2
0	B3

biological target: M44-modified L NTAA target peptides (M44-L-P2-peptide); assay: encoding assay; P2 Q;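 note: fraction of recording tags encoded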

encoding yield	Binder
0.12	B1
0.04	B2
0.02	B3

biological target: M44-modified M NTAA target peptides; assay: encoding assay; P2 Q

encoding yield	Binder
0.01	B1
0.01	B2
0	B3

biological target: M44-modified N NTAA target peptides; assay: encoding assay; P2 Q

encoding yield	Binder
0.02	B1
0.05	B2
0.01	B3

biological target: M44-modified Q NTAA target peptides; assay: encoding assay; P2 Q

encoding yield	Binder
0.01	B1
0.02	B2
0.01	B3

biological target: M44-modified S NTAA target peptides; assay: encoding assay; P2 Q

encoding yield	Binder
0.04	B1
0.05	B2
0.01	B3

biological target: M44-modified V NTAA target peptides; assay: encoding assay; P2 Q;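 note: fraction of recording tags encoded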

encoding yield	Binder
0.03	B1
0.06	B2
0.01	B3

biological target: M44-modified F NTAA target peptides (M44-F-P2-peptide); assay: encoding assay; P2 W;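 note: fraction of recording tags encoded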

encoding yield	Binder
0.27	B1
0.18	B2
0.09	B3

biological target: M44-modified G NTAA target peptides (M44-G-P2-peptide); assay: encoding assay; P2 W;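 note: fraction of recording tags encoded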

encoding yield	Binder
0.01	B1
0.02	B2
0.01	B3

biological target: M44-modified V NTAA target peptides; assay: encoding assay; P2 W;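 note: fraction of recording tags encoded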

encoding yield	Binder
0.08	B1
0.22	B2
0.03	B3

biological target: M44-modified N NTAA target peptides; assay: encoding assay; P2 Y

encoding yield	Binder
0.02	B1
0.03	B2
0.01	B3

biological target: M44-modified W NTAA target peptides; assay: encoding assay; P2 Y;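 note: fraction of recording tags encoded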

encoding yield	Binder
0.15	B1
0.05	B2
0.01	B3

biological target: M44-modified Y NTAA target peptides (M44-Y-P2-peptide); assay: encoding assay; P2 Y;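 note: fraction of recording tags encoded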

encoding yield	Binder
0.06	B1
0.04	B2
0.02	B3
